Assay [1] deals with T1, CD74 on RPMI-6666 (HL) cells (Homo sapiens, UniProt P04233).
T1 construct: endogenous in cells; host or cells: RPMI-6666, SU-DHL-6, ARD, ARP-1, RPMI-8226, OPM-2, BDCM, SUP-B15, JVM-13, K562
T1 sequence (P04233 1-296): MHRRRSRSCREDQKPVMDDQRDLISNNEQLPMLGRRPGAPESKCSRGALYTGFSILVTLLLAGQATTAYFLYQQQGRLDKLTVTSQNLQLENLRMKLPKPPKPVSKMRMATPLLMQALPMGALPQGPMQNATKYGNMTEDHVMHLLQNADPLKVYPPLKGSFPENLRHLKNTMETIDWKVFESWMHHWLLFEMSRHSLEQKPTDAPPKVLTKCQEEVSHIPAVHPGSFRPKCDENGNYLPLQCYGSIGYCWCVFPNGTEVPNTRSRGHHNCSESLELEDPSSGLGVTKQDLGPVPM
The experiment in a line: Cell binding assay (FACS), RPMI-6666 (HL). The settings on record: NB = no binding. The method, then: (§1) Cell lines tested included B-lymphoma, multiple myeloma, and leukemia cells.
(§2) Cell lines were maintained in RPMI, high glucose (Cellgro-Mediatech; Manassas, Va.) supplemented with 20% heat-inactivated fetal bovine serum (Hyclone; Thermo Scientific; Waltham, Mass.), 2 mM glutamax (Invitrogen; Carlsbad, Calif.) and 1×Pencillin/streptomycin (Cellgro-Mediatech; Manassas, Va.). Cells were harvested and re-suspended in FACS buffer (DPBS buffer supplemented with 1% bovine serum albumin). […] Cells were washed twice with ice-cold FACS buffer and incubated with 5 ug/ml Alexa 647 labeled donkey anti-human IgG antibody (Jackson Immune-Research) on ice for another 60 mins. Unstained cells and cells stained with secondary antibody alone were used as controls. Samples were then washed twice using FACS buffer and analyzed using a BD FACS Canto system. Mean fluorescence intensities were fitted using non-linear regression analysis with one site specific binding equation on GraphPad Prism. Data was expressed as geometric mean fluorescent intensity vs. antibody concentration in nM.
(§3) Each of Conjugates A-F was evaluated for the ability to bind and kill cells expressing CD74. Cell lines tested included B-lymphoma, multiple myeloma, and leukemia cells. Controls included unconjugated anti-CD74 antibody.

In assay [2] the target is T2, CD74 on SU-DHL-6 (NHL) cells (Homo sapiens, UniProt P04233).
T2 construct: endogenous in cells; host or cells: SU-DHL-6
T2 sequence (P04233 1-296): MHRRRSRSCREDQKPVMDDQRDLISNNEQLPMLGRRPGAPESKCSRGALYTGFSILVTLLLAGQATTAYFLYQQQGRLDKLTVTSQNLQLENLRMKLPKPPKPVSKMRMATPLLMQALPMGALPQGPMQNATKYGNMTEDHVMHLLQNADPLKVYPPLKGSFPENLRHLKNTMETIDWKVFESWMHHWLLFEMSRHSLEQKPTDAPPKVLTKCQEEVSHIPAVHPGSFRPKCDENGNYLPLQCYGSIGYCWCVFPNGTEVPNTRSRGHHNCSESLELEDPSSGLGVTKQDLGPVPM
The experiment in a line: Cell binding assay (FACS), SU-DHL-6 (NHL). The settings on record: NB = no binding. The method, then:
as §1, §2, §3

Assay [3] deals with T3, CD74 on ARD (MM) cells (Homo sapiens, UniProt P04233).
T3 construct: endogenous in cells; host or cells: RPMI-6666, SU-DHL-6, ARD, ARP-1, RPMI-8226, OPM-2, BDCM, SUP-B15, JVM-13, K562
T3 sequence (P04233 1-296): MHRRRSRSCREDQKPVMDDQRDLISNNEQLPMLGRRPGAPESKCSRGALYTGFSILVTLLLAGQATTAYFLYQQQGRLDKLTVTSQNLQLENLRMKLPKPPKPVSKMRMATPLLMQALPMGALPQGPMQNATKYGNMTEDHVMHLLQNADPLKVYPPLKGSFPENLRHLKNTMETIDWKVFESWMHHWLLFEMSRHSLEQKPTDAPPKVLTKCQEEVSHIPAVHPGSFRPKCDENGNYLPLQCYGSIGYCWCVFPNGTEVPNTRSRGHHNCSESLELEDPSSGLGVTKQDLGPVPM
The experiment in a line: Cell binding assay (FACS), ARD (MM). The settings on record: NB = no binding. The method, then:
as §1, §2, §3

For assay [4], the target named is T4, CD74 on ARP-1 (MM) cells (Homo sapiens, UniProt P04233).
T4 construct: endogenous in cells; host or cells: RPMI-6666, SU-DHL-6, ARD, ARP-1, RPMI-8226, OPM-2, BDCM, SUP-B15, JVM-13, K562
T4 sequence (P04233 1-296): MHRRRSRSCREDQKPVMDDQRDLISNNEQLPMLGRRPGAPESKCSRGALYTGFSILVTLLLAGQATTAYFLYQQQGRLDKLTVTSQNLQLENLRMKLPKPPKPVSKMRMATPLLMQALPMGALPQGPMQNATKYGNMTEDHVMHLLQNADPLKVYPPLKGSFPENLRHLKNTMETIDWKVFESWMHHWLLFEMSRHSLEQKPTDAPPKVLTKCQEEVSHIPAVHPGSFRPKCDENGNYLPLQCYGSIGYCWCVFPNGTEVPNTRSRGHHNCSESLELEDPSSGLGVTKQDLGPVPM
The experiment in a line: Cell binding assay (FACS), ARP-1 (MM). The settings on record: geometric mean fluorescent intensity, NB = no binding. The method, then: as §1
as §2, with “Cells” for “Cell lines were maintained in RPMI, high glucose (Cellgro-Mediatech; Manassas, Va.) supplemented with 20% heat-inactivated fetal bovine serum (Hyclone; Thermo Scientific; Waltham, Mass.), 2 mM glutamax (Invitrogen; Carlsbad, Calif.) and 1×Pencillin/streptomycin (Cellgro-Mediatech; Manassas, Va.). Cells”
as §1

In assay [5] the target is T5, CD74 on RPMI-8226 (MM) cells (Homo sapiens, UniProt P04233).
T5 construct: endogenous in cells; host or cells: RPMI-8226
T5 sequence (P04233 1-296): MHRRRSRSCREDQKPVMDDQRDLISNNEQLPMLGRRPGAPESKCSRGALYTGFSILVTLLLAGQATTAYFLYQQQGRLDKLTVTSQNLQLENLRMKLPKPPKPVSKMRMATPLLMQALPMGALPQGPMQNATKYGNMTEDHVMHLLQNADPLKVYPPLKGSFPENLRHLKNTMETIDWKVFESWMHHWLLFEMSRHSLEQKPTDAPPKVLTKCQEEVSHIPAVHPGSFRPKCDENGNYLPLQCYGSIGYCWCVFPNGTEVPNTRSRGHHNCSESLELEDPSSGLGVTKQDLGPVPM
The experiment in a line: Cell binding assay (FACS), RPMI-8226 (MM). The settings on record: NB = no binding. The method, then:
as §1, §2, §3

Assay [6] concerns the target T6, CD74 on BDCM (AML) cells (Homo sapiens, UniProt P04233).
T6 construct: endogenous in cells; host or cells: RPMI-6666, SU-DHL-6, ARD, ARP-1, RPMI-8226, OPM-2, BDCM, SUP-B15, JVM-13, K562
T6 sequence (P04233 1-296): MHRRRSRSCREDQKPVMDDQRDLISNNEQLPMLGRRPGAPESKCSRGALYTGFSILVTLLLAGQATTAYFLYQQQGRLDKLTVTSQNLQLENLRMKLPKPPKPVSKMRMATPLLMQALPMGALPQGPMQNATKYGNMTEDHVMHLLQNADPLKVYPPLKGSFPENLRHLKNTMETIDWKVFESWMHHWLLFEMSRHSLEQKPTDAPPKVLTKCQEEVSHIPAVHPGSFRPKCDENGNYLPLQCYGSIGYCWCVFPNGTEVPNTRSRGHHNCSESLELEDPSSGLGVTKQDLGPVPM
The experiment in a line: Cell binding assay (FACS), BDCM (AML). The settings on record: NB = no binding. The method, then:
as §1, §2, §3

Assay [7] has as its target T7, CD74 on SUP-B15 (ALL) cells (Homo sapiens, UniProt P04233).
T7 construct: endogenous in cells; host or cells: RPMI-6666, SU-DHL-6, ARD, ARP-1, RPMI-8226, OPM-2, BDCM, SUP-B15, JVM-13, K562
T7 sequence (P04233 1-296): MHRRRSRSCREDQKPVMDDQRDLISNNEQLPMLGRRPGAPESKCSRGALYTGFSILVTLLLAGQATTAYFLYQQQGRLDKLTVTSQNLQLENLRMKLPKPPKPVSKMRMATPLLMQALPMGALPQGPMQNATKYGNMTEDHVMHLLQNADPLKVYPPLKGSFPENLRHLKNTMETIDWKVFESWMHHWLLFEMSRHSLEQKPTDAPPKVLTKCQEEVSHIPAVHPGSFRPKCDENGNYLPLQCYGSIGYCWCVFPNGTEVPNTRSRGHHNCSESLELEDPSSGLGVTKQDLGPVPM
The experiment in a line: Cell binding assay (FACS), SUP-B15 (ALL). As to conditions: NB = no binding. The method, then: as §1, §2, §3

Assay [8] deals with T8, CD74 on JVM-13 (CLL) cells (Homo sapiens, UniProt P04233).
T8 construct: endogenous in cells; host or cells: RPMI-6666, SU-DHL-6, ARD, ARP-1, RPMI-8226, OPM-2, BDCM, SUP-B15, JVM-13, K562
T8 sequence (P04233 1-296): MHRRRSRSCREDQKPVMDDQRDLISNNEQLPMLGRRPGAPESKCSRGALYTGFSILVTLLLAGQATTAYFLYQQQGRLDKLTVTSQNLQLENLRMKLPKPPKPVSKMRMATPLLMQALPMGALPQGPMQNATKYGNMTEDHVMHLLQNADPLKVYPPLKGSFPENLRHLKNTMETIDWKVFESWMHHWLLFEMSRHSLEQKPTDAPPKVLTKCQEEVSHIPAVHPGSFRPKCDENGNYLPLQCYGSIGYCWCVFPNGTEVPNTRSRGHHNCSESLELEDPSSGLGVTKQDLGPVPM
The experiment in a line: Cell binding assay (FACS), JVM-13 (CLL). The settings on record: NB = no binding. The method, then:
as §1, §2, §3

The mark [9] stands for this setting: FACS, geometric mean fluorescent intensity.

B1: anti-CD74 (antibody, V domains shown)
VH: QVQLVESGGGVVQPGRSLRLSCAASGFNFSDYGMHWVRQAPGKGLEWVAVIWYDGSISYYADSVKGRFTISRDNSKNTLYLQMNSLRAEDTAVYYCARGGTVEHGAVYGTDVWGQGTTVTVSS
VL: DIQMTQSPSSVSASVGDRVTITCRASQGIGSWLAWYQQKPGKAPKLLIYAADRLQSGVPSRFSGSGSGTDFTLTISSLQPEDFATYYCQQYHTYPLTFGGGTKVEIK
As for B1, the Bmax worked out at 3879 in assay [1] (setting [9]); 1565 in assay [2] (setting [9]); 190 in assay [3] (setting [9]); 341 in assay [4]; 119 in assay [5] (setting [9]); 3059 in assay [6] (setting [9]). Also, the Bmax in assay [7] (setting [9]) is reported as 680; in assay [8] (setting [9]), 447. In addition, the Kd in assay [1] (cell binding) was 2.3 nM; in assay [2] (cell binding) it was 2 nM; in assay [3] (cell binding) it was 2.6 nM; in assay [5] (cell binding), 3.6 nM; in assay [6] (cell binding), 4.5 nM; in assay [7] (cell binding), 3.5 nM. The same molecule registered a Kd in assay [8] (cell binding) of 2.5 nM.

Usually Kd stands for a measure of binding affinity in units of concentration.

(Values after patent US11708413B2 (priority 2016, dated 2023).)
